In patent US5889151A (priority 1989, dated 1999):

Experiments:
coronavirus = conditions: infected with a coronavirus; 37% with placebo; cited from earlier work
rhinoviruses = conditions: clinical trials; cited from earlier work
mouse parental BTG cells = format: cell-based
transfected 10B H7 clone = format: cell-based, mouse
human Wish cells = format: cell-based

alpha interferon
volunteers developing the symptoms of a cold (coronavirus): 6% | protection of volunteers infected with different rhinoviruses (rhinoviruses): 100%

B1: Human gamma IFN: human gamma interferon, recognized by a different receptor (protein, UniProt P01579 24-161, looked up)
Interferon gamma: QDPYVKEAENLKKYFNAGHSDVADNGTLFLGILKNWKEESDRKIMQSQIVSFYFKLFKNFKDDQSIQKSVETIKEDMNVKFFNSNKKKRDDFEKLTNYSVTDLNVQRKAIHELIQVMAELSPAAKTGKRKRSQMLFRG
Antiviral activities of interferon preparations tested on BTG (mouse parental BTG cells): < 1 × 10^3 units/ml | antiviral activity (in words) (mouse parental BTG cells): no antiviral activity | Antiviral activities of interferon preparations tested on 10BH7 (transfected 10B H7 clone): < 1 × 10^3 units/ml | antiviral activity (in words) (transfected 10B H7 clone): no antiviral activity | Antiviral activities of interferon preparations tested on WISH (human Wish cells): 20 × 10^6 units/ml
